{"source": "patent US10295537B2", "about": "“Biorecognition elements for rapid detection of biocontamination” (The United States of America, as represented by the …, priority 2017, dated 2019)", "key": {"OprF1": {"target": "T1, OprF1 (Pseudomonas aeruginosa, UniProt P13794)", "T1 sequence (P13794 whole entry, looked up)": "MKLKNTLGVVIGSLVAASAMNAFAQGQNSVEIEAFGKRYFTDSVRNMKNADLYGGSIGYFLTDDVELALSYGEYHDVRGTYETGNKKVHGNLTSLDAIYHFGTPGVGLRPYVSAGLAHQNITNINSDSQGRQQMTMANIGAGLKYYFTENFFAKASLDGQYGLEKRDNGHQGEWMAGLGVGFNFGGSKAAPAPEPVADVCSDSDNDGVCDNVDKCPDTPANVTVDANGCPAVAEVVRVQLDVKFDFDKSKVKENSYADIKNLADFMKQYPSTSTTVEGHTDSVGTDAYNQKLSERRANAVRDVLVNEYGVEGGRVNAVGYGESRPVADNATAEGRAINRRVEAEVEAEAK", "assay": "Solution-phase biopanning of Ph.D.-7 phage library against OprF1 with amplification, physiological conditions, clone abundance", "type": "binding, P. aeruginosa", "conditions": "four rounds with amplification, physiological conditions (pH 7)", "text": "Biotinylated at its N-terminal, an OprF1 synthetic peptide was used for solution biopanning screening of a commercially-available M13 bacteriophage library displaying heptameric peptides at the N-terminal of P3 coat protein. Solution-phase biopanning provided the benefit of including the availability of all the OprF1 aa residues for interaction with the potential peptide binder with lessened likelihood of isolating unspecific peptides that might bind to the capture element used to purify the phage-antigen complex (i.e., magnetic or protein G beads).\nGenerally, solution-phase biopanning was carried out as described by the manufacturer (New England Biolabs, Ipswich, Mass.) with some modifications, including the changing of pH from 7.0 to 5.5 and 8.5 and adding 1% v/v of Jet A fuel. The first round of selection was carried out by diluting Ph.D.-7 bacteriophage library 100-fold in 0.1% Tris buffer saline plus Tween 20 (0.1% TBST) at the appropriate pH for selection plus fuel. Subsequently, the phage library was incubated with 1 μg of N-terminal biotinylated target protein fragment (OprF1: […] (SEQ. ID No. 1), OprF2: ADIKNLADFMK QYPSTSTT (SEQ. ID No. 2), Opr86: […] STP (SEQ. ID No. 3)) for 1 hr at 25° C. […] Titer of the amplified phage (more than 10^10 pfu/mL) was determined by infection into E. coli ER2738 and subsequent growth in selective medium containing X gal/IPTG. […]"}, "[1]": {"target": "biotinylated bovine serum albumin (BSA) (Bos taurus, UniProt P02769)", "sequence (P02769 25-607)": "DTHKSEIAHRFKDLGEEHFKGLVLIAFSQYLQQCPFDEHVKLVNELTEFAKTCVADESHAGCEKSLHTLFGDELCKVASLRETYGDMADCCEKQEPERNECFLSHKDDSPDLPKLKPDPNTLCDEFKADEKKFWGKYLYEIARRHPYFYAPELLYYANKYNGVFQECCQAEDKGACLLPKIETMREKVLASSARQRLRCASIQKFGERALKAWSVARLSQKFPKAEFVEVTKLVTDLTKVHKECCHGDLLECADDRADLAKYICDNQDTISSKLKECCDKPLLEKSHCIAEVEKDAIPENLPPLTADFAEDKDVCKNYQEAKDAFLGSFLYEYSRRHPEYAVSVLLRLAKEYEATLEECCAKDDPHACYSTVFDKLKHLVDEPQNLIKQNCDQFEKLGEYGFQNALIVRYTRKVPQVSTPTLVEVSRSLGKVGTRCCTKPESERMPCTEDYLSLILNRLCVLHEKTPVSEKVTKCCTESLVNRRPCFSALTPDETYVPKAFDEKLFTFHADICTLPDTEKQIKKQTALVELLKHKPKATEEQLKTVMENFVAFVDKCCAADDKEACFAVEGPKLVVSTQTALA", "assay": "Biopanning against biotinylated BSA to identify target-unrelated peptides", "type": "binding", "conditions": "phage displaying the peptide, round 3", "text": "The phage library was then screened to identify target-unrelated peptides by using biotinylated bovine serum albumin (“BSA”) as a target for biopanning."}, "biotinylated OprF1": {"target": "T2, biotinylated OprF1 (Pseudomonas aeruginosa, UniProt P13794)", "T2 construct": "Biotinylated at its N-terminal, an OprF1 synthetic peptide was used for solution biopanning screening", "T2 sequence (P13794 whole entry, looked up)": "T1 sequence (P13794 whole entry, looked up)", "assay": "Unamplified competitive solution biopanning of 14 monoclonal phages against biotinylated OprF1; percent abundance among 30 clones as relative affinity", "type": "binding, P. aeruginosa", "conditions": "Bushnell-Haas pH 8.5 with 1% v/v Jet-A, 30 randomly selected clones"}}}
{"substance": "PPKINIM (Artificial sequence obtained through biopanning.) [target-unrelated, cross-reacts with BSA]", "values": [{"measurement": "abundance based on round 4 clones", "setting": "OprF1", "result": 80, "unit": "%"}, {"measurement": "cross-reaction with BSA", "setting": "[1]", "result": "cross-react with BSA"}, {"measurement": "% Abundance", "setting": "biotinylated OprF1", "result": 3, "unit": "%"}]}
